Experiment [1] concerns the target human FcRn/B2 microglobulin. Kind of experiment: SPR; pH 6.0. (In general: Surface plasmon resonance follows binding to a sensor surface in real time, without labels.)
The target of experiment [2] is FcγRIIb. Kind of experiment: SPR; rhesus FcγR.
Experiment [3] has as its target FcγRIIa. Kind of experiment: SPR; rhesus FcγR.
The target in experiment [4] is FcγRI. Kind of experiment: SPR; rhesus FcγR.
Experiment [5] addresses FcγRIII. Kind of experiment: SPR; rhesus FcγR.
Experiment [6] deals with FcγRIIa R. Kind of experiment: SPR; human FcγRIIa R131.
Experiment [7] concerns the target FcγRIV. Kind of experiment: SPR; mouse FcγR.
Experiment [8] addresses FcγRIIb. Kind of experiment: SPR; mouse FcγR.
Experiment [9] has as its target FcγRI. Kind of experiment: SPR; mouse FcγR.
The target of experiment [10] is FcγRIII. Kind of experiment: SPR; mouse FcγR.
The target of experiment [11] is FcγRIIIa F. Kind of experiment: SPR; human FcγRIIIa F157.
In experiment [12] the target is FcγRIIIa V. Kind of experiment: SPR; human FcγRIIIa V157.
The target of experiment [13] is FcγRIIa H. Kind of experiment: SPR; human FcγRIIa H131.

Among the data in patent US20250171558A1 are Kd values, retold here.

Broadly, the Kd is the equilibrium constant for the complex coming apart. A higher Kd goes with lower affinity.

Turning to GAIE LS-, the Kd in [1] was 0.0201 µM.
In the case of SDIE, the dissociation constant Kd in experiment [2] was 0.54 µM; in experiment [3] it was 0.685 µM; in [4], 0.000441 µM; in [5], 0.03 µM; in experiment [6] it was 0.354 µM; in experiment [7], 0.00856 µM. The Kd worked out at 0.398 µM in [8]; 0.0141 µM in experiment [9]; 1.08 µM in experiment [10]; 0.0475 µM in [11]; 0.0296 µM in experiment [12]; 0.769 µM in experiment [13].
For SDIE LS+, in experiment [1], the Kd was found to be 0.00119 µM.
With GAALIE, the Kd in experiment [2] was determined as 6.92 µM; in experiment [3], 9.1 µM; in experiment [4] it was 0.000457 µM; in experiment [5], 0.0912 µM; in experiment [6], 0.819 µM; in experiment [7], 0.207 µM. Also, the Kd was found to be 1.62 µM in [8]; 0.44 µM in experiment [9]; 2.38 µM in [10]; 0.164 µM in experiment [11]; 0.131 µM in experiment [12]; 0.622 µM in experiment [13].
As to GAALIE LS+, the Kd in [1] worked out at 0.0014 µM.
As for GAIE, the Kd in [2] was 1.1 µM; in experiment [3] it was 1.4 µM; in experiment [4] it was 0.00051 µM; in experiment [5], 0.0876 µM; in experiment [6] it was 0.204 µM; in [7], 0.258 µM. The Kd in experiment [8] is 1.15 µM; in experiment [9] it was 0.212 µM; in experiment [10], 2.52 µM; in experiment [11], 0.162 µM; in experiment [12], 0.13 µM; in [13] it was 0.249 µM.
In the case of SDIE LS-, the dissociation constant (Kd) in experiment [1] was found to be 0.0127 µM.
In [1], GAALIE LS- gave a Kd of 0.0199 µM.
Turning to GAIE LS+, the Kd in experiment [1] amounted to 0.00199 µM.
